Holding throughout (experiment): cell-based or functional assay
One experiment deals with T1, AlgW-W281A (Pseudomonas aeruginosa, UniProt Q9HVX1 30-389, W281A).
T1 sequence: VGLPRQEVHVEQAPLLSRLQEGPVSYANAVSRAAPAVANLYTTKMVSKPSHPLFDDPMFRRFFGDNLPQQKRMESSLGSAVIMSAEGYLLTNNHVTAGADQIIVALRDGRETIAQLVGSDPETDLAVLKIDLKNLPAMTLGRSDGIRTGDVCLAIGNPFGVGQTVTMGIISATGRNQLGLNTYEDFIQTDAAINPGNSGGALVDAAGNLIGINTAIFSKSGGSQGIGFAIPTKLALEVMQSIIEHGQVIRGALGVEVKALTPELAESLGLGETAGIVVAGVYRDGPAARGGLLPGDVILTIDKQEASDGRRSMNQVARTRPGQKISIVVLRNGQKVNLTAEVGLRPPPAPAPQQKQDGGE

Experiment [1] has as its target T2, soluble AlgW (residues 30 to 389, without the N-terminal transmembrane segments) (Pseudomonas aeruginosa, UniProt Q9HVX1 30-389).
T2 sequence: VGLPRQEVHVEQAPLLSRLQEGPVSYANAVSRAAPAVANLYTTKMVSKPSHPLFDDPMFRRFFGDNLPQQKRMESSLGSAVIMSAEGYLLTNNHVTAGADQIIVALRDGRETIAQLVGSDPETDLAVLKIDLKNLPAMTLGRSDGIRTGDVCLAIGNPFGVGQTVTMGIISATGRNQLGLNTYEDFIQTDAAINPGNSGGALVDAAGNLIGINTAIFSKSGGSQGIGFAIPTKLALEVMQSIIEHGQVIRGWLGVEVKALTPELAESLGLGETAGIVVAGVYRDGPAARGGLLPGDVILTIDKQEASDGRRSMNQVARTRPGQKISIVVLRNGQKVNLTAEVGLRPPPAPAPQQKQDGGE

The target in a further experiment is T3, AlgW-L282A (Pseudomonas aeruginosa, UniProt Q9HVX1 30-389, L282A).
T3 sequence: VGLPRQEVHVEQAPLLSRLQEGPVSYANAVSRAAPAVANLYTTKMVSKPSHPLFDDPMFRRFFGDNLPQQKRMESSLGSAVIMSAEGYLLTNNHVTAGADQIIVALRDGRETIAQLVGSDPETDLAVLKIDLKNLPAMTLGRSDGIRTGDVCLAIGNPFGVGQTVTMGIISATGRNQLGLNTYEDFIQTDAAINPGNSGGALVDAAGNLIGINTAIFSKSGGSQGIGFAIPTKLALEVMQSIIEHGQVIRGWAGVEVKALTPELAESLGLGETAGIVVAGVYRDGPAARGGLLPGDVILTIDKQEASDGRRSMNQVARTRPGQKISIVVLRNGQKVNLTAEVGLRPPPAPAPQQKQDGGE

The next experiment addresses T4, AlgW-E151A (Pseudomonas aeruginosa, UniProt Q9HVX1 30-389, E151A).
T4 sequence: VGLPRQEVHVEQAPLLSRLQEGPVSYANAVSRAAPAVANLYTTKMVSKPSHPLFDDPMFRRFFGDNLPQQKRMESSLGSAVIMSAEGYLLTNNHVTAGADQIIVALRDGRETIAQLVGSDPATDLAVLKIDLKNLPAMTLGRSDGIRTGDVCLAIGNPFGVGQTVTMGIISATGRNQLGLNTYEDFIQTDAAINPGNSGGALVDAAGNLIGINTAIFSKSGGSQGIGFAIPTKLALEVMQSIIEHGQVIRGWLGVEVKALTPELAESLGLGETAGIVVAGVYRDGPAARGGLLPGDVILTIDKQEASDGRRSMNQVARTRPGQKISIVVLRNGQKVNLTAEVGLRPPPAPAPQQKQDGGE

For the next experiment, the target named is T5, AlgW-K287A (Pseudomonas aeruginosa, UniProt Q9HVX1 30-389, K287A).
T5 sequence: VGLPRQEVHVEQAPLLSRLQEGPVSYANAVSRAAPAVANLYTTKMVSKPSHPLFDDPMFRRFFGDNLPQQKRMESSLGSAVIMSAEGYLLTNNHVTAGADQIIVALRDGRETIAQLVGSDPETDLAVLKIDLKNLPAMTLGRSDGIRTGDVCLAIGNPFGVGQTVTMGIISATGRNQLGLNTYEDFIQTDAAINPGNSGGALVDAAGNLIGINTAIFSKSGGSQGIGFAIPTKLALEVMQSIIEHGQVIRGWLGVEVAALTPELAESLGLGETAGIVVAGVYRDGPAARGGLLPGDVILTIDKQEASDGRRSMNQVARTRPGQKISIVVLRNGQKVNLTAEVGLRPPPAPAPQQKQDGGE

The next experiment concerns the target T6, AlgW-R374A (Pseudomonas aeruginosa, UniProt Q9HVX1 30-389, R374A).
T6 sequence: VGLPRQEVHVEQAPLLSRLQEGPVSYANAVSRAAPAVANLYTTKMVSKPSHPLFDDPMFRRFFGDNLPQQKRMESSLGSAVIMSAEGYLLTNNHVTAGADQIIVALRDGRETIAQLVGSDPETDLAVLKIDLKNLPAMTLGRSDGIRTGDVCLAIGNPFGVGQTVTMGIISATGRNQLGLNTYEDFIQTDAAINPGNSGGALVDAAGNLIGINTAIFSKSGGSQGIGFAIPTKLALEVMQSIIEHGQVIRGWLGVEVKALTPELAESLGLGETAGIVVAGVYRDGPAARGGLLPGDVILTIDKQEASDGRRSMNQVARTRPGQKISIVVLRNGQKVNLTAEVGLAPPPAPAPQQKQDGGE

The target of the next experiment is T7, AlgW-E285A (Pseudomonas aeruginosa, UniProt Q9HVX1 30-389, E285A).
T7 sequence: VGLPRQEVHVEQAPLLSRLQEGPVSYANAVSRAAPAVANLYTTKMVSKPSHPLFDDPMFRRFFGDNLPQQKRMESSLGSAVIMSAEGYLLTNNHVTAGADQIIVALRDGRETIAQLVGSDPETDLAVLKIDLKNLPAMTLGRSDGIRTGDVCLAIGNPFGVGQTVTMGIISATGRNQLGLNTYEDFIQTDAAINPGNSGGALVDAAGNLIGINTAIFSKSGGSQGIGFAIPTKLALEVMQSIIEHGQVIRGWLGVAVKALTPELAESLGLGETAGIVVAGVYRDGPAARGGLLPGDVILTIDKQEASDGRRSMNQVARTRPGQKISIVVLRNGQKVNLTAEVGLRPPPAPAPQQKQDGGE

B1: decapeptide SVRDELRWVF (MucE C-terminal tail) (peptide)
peptide: SVRDELRWVF
notes: C-terminal decapeptide of the periplasmic protein MucE of Pseudomonas aeruginosa; also called C-terminal decapeptide of MucE
For the molecule B1, the “half-maximal activation concentration of the peptide activator (cleavage of Abz-VLAG-pNA)” value was 1.51 μM with AlgW-W281A; 2.02 μM in experiment [1]; 2.76 μM in the experiment with AlgW-L282A; 2.99 μM in the experiment with AlgW-E151A; 6.53 μM in the experiment with AlgW-K287A; 3.84 μM with AlgW-E285A. Further, the “maximal cleavage activity of peptide-activated AlgW (Abz-VLAG-pNA)” value was determined as 10.3 μM min^−1 with AlgW-W281A; 165 μM min^−1 in experiment [1]; 13.2 μM min^−1 with AlgW-L282A; 49.4 μM min^−1 in the experiment with AlgW-K287A; 5.45 μM min^−1 with AlgW-R374A; 57.5 μM min^−1 in the experiment with AlgW-E285A.

For the origin of these results see article PMC8545111, “Molecular Basis of the Versatile Regulatory Mechanism of HtrA-Type Protease AlgW from Pseudomonas aeruginosa” (mBio, 2021).
